Molecular target: T1, thrombin (UniProt P00734;P00734 P00734:328-363,P00734:364-622)
Test: SPR; no specific response

Binder	binding result
T_apt.5 (ssDNA) DNA: AGCAGCACAGAGGTCAGATGGTGGATTTGGGTGGATTGGTATGAACTGACCCTATGCGTGCTACCGTGAA	no binding
T_beads_re_apt.9 (ssDNA) DNA: AGCAGCACAGAGGTCAGATGGGGGATGGTTAGGGTGGCTTAATATTGACCCCTATGCGTGCTACCGTGAA	no binding
T_apt.2 (= T_beads_apt.5) (ssDNA) DNA: AGCAGCACAGAGGTCAGATGGAGTCGGGTGGCTATTGGGTATGGACCGTGCCTATGCGTGCTACCGTGAA	no binding

Molecular target: T1, thrombin
Test: SPR; HBS-EP, 150 mM NaCl, pH 7.0

Binder	Kd
T_apt.4 (= T_beads_re_apt.8) (ssDNA) DNA: AGCAGCACAGAGGTCAGATGTTGGTGGGGTGGCTTTGGGTATTTACTTGGCCTATGCGTGCTACCGTGAA	81 nM
T_apt.3 (= T_beads_apt.1, T_beads_re_apt.7) (ssDNA) DNA: AGCAGCACAGAGGTCAGATGGATGGTGTAGGTTGGGAGAGGCTCAGTGCCCCTATGCGTGCTACCGTGAA	76 nM
T_apt.6 (ssDNA) DNA: AGCAGCACAGAGGTCAGATGGTTGGGTAGGGTTGGATAGGGGCAAGTAGACCTATGCGTGCTACCGTGAA	55 nM
